The text below walks through data of publication PMC2323298 (PLoS Pathogens, 2007).

In assay [1] the target is T1, AMA1 (apical membrane antigen 1) domains I+II (Plasmodium falciparum 3D7, UniProt Q7KQK5).
T1 construct: also called AMA1 domains I+II
Kind of assay: crystal structure; AMA1 domains I+II and 1F9 Fab mixed (Fab in slight excess); 20 mM MES pH 6.0, 10 mM MnCl2, 6% PEG 3350, hanging drops; two crystal forms. The conditions noted are these: both partners purified.

In assay [2] the target is T2, 3D7 AMA1 domain I expressed on M13 phage (Plasmodium falciparum 3D7, UniProt Q7KQK5).
T2 construct: also called 3D7 domain I; domain I AMA1
Kind of assay: ELISA. Conditions: one partner purified. (In general: In an ELISA, binding on a coated surface is turned into a signal by an enzyme label.)

Assay [3] deals with T3, Full-length 3D7 AMA1 ectodomain (Plasmodium falciparum 3D7, UniProt Q7KQK5).
T3 construct: also called recombinant full-length 3D7 AMA1 ectodomain; full-length recombinant AMA1
The assay can be described thus: ELISA; competition ELISA: 100 ul of 0.3 ug/ml full-length AMA1 ectodomain immobilised on plastic; dilutions of human plasma added, followed by 10 ul of 3.0 ug/ml mAb; peroxidase-conjugated anti-mouse antibodies. Conditions: both partners purified.

B1: 1F9 Fab fragment (Fab, V domains shown)
VH: EVQLQQSGAELLRPGASVKLSCIVSGFKIKDTSMHWVKQRPEQGLEWIGRIDPANDNSEYDPKFQGKATITADTSSNTAYLQLSSLTSEDTAVYYCTLSHFWGQGTTLTVSS
VL: SIVMTQTPKFLPVSAGDRVTIICKASQSVSNDVVWYQQKPGQSPKLLIYYASIRYTGVPDRFTGSGYGTDFTFTISTVQVEDLAVYFCQQGFSSPRTFGGGTKLEIN
notes: also called Fab 1F9
In the case of B1, the binding result in assay [1] is “binds”.

B2: Mouse monoclonal antibody 1F9 (isotype IgG2b with a Kappa light chain) (antibody, V domains shown)
VH: EVQLQQSGAELLRPGASVKLSCIVSGFKIKDTSMHWVKQRPEQGLEWIGRIDPANDNSEYDPKFQGKATITADTSSNTAYLQLSSLTSEDTAVYYCTLSHFWGQGTTLTVSS
VL: SIVMTQTPKFLPVSAGDRVTIICKASQSVSNDVVWYQQKPGQSPKLLIYYASIRYTGVPDRFTGSGYGTDFTFTISTVQVEDLAVYFCQQGFSSPRTFGGGTKLEIN
notes: also called mAb 1F9
In the case of B2, the binding result in assay [2] and in assay [3] was “binds” throughout.
